Experiment [1] concerns the target deglycosylated human nAChR α9-ECD (human) (UniProt Q9UGM1). Put plainly: radioligand binding.
In experiment [2] the target is glycosylated human nAChR α9-ECD (human) (UniProt Q9UGM1). In words: radioligand binding.

On to “α-conotoxin RgIA, globular isomer, C-terminally amidated (from UniProt P0C1D0 20-32) (peptide)”, for which the Ki is 2.7 µM in experiment [1] and 13.3 µM in experiment [2].

One may read the Ki as a dissociation constant, usually derived from enzyme kinetics or from competition with a known ligand.

The record behind these values is PMC6504684 (Frontiers in Pharmacology, 2019).
